In US20090192112A1 (REGENTS OF THE UNIVERSITY OF MICHIGAN, published 2009):

Tests used:
β-catenin = target: T1, β-catenin (human, UniProt P35222 2-781); experiment: co-IP with β-catenin antibody, anti-ATDC western blot, BxPC3 lysate
T1 construct: Endogenous protein in cell lysate; also called beta-catenin
T1 sequence (looked up): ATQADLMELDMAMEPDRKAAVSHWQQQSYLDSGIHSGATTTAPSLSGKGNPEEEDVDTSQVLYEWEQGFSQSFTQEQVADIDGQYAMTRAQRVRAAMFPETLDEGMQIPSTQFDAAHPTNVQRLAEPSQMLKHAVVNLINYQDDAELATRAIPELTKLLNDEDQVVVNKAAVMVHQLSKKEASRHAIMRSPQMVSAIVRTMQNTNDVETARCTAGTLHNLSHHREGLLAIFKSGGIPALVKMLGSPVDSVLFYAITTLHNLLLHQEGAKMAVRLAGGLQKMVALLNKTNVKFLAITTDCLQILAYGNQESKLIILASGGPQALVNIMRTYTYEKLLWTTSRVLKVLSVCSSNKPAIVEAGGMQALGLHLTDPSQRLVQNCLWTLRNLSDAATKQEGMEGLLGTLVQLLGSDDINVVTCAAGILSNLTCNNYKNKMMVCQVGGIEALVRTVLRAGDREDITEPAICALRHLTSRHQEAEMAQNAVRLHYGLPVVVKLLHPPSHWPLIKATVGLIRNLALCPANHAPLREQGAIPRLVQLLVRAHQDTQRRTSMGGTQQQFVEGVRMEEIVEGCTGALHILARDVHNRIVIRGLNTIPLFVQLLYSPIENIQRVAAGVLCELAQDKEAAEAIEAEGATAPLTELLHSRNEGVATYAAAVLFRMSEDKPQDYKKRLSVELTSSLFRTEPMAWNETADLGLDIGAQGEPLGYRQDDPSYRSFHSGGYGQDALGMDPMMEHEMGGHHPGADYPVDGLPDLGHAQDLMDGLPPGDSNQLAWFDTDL
Description: HEK 293 cells with or without stable transfection of ATDC and BxPC-3 cells were lysed by sonicating for 5 sec in 1 ml of detergent free lysis buffer (PBS, 5 mM EDTA, 0.02% sodium azide, 10 mM iodoacetamide, 1 mM PMSF and 2 μg leupeptin) at 4° C. […] Antibody conjugated beads were prepared by combining 1 μg of polyclonal antibodies with 30 μl of a 50% protein A-Sepharose bead slurry in 0.5 ml of ice-cold PBS for 1 hr at 4° C. in a tube rotator and then were washed two times with 1 ml of lysis buffer. The antibodies used for co-immunoprecipitation were: Dvl-2, β-catenin (Cell Signaling Technology, Beverly, Mass.), axin, and GSK3β (Upstate, Temecula, Calif.). Cell lysates (500 μg) was incubated with the prepared beads and 10 μl of 10% BSA overnight at 4° C. The beads were washed four times with washing buffer (50 mM Tris-Hcl [pH 7.4], 300 mM NaCl, 5 mM EDTA, 0.02% sodium azide, 0.1% Triton X-100) and one time with ice-cold PBS. […] Images were visualized using an ECL detection system.
To ascertain the mechanism by which ATDC stabilizes β-catenin, it was first examined whether ATDC interacts with the components of the multi-protein complex that regulates β-catenin stability.

disheveled-1 (Dvl-1) = target: T2, disheveled-1 (Dvl-1) (human, UniProt O14640 1-695, limits assumed); experiment: co-IP, BxPC3 lysate
T2 construct: Endogenous protein in cell lysate
T2 sequence (looked up): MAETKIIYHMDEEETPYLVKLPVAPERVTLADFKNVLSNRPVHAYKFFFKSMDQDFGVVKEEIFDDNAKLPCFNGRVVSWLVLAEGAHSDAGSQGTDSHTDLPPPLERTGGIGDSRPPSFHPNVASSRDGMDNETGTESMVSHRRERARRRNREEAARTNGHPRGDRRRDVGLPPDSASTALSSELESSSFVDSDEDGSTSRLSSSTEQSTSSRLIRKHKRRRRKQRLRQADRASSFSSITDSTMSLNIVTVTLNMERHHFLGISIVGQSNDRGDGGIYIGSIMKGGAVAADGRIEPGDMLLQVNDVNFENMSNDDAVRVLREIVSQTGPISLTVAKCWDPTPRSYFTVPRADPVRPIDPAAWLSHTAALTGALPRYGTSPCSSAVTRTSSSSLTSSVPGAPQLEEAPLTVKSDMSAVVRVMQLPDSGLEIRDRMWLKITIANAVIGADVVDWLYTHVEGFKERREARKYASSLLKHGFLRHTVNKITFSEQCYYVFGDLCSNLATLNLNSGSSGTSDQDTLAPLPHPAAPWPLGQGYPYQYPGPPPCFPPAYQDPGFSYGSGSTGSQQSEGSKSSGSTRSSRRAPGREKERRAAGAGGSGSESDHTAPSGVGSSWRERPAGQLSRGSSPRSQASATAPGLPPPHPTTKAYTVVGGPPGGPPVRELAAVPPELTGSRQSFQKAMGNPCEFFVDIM

disheveled-3 (Dvl-3) = target: T3, disheveled-3 (Dvl-3) (human, UniProt Q92997 1-716, limits assumed); experiment: co-IP, BxPC3 lysate
T3 construct: Endogenous protein in cell lysate
T3 sequence (looked up): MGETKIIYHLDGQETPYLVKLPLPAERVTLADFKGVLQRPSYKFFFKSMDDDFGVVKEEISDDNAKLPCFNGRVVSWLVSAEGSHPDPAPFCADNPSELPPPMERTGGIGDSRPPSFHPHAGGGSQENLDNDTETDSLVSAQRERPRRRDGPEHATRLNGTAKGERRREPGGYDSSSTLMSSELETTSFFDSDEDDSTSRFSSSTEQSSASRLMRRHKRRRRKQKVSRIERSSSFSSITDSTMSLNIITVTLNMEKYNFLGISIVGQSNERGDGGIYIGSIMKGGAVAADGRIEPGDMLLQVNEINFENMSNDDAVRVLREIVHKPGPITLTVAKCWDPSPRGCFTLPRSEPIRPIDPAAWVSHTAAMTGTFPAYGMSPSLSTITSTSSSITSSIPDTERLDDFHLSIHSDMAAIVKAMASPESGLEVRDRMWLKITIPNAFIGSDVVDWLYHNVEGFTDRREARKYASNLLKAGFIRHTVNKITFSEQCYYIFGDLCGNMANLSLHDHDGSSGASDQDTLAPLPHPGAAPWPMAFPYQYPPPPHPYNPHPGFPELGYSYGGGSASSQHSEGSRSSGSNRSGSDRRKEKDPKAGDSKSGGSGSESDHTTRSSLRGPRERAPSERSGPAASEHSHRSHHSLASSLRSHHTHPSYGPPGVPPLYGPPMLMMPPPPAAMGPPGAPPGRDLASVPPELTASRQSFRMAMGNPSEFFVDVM

Measured: binding result

B1: ATDC (Ataxia-Telangiectasia Group D Complementing Gene, also known as TRIM29), endogenous (other, UniProt Q14134 1-588, looked up)
chain: MEAADASRSNGSSPEARDARSPSGPSGSLENGTKADGKDAKTTNGHGGEAAEGKSLGSALKPGEGRSALFAGNEWRRPIIQFVESGDDKNSNYFSMDSMEGKRSPYAGLQLGAAKKPPVTFAEKGELRKSIFSESRKPTVSIMEPGETRRNSYPRADTGLFSRSKSGSEEVLCDSCIGNKQKAVKSCLVCQASFCELHLKPHLEGAAFRDHQLLEPIRDFEARKCPVHGKTMELFCQTDQTCICYLCMFQEHKNHSTVTVEEAKAEKETELSLQKEQLQLKIIEIEDEAEKWQKEKDRIKSFTTNEKAILEQNFRDLVRDLEKQKEEVRAALEQREQDAVDQVKVIMDALDERAKVLHEDKQTREQLHSISDSVLFLQEFGALMSNYSLPPPLPTYHVLLEGEGLGQSLGNFKDDLLNVCMRHVEKMCKADLSRNFIERNHMENGGDHRYVNNYTNSFGGEWSAPDTMKRYSMYLTPKGGVRTSYQPSSPGRFTKETTQKNFNNLYGTKGNYTSRVWEYSSSIQNSDNDLPVVQGSSSFSLKGYPSLMRSQSPKAQPQTWKSGKQTMLSHYRPFYVNKGNGIGSNEAP
notes: Endogenous protein in lysates of human pancreatic cancer cell lines (BxPC3, Panc-1); also called endogenous ATDC
no binding: all assays above
